In US20260234236A1 (INTERVET, published 2026):
Numbering of substitutions follows the chain as printed. In names and notes the source's numbering stands.

T1: Recombinant canine IL-4 (R&D Systems, Catalog: 752-CL/CF) (canine, UniProt O77762 25-132)
T1 sequence (looked up): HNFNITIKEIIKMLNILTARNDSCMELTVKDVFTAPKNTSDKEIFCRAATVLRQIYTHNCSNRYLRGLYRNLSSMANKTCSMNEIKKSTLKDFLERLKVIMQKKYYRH

T2: Canine IL-4 with C-terminal Avi-HIS tag (canine, biotin label when loaded on SA biosensors (Example 4); site not stated)
T2 construct: also called cIL-4; biotinylated avitag-cIL-4
T2 chain: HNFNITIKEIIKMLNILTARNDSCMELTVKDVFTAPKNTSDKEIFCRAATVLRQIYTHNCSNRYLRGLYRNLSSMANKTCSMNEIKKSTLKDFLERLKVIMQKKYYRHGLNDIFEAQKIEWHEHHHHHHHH

T3: Canine IL-13 with C-terminal Avi-HIS tag (canine, biotin label when loaded on SA biosensors (Example 4); site not stated)
T3 construct: also called cIL-13; biotinylated avitag-cIL13
T3 chain: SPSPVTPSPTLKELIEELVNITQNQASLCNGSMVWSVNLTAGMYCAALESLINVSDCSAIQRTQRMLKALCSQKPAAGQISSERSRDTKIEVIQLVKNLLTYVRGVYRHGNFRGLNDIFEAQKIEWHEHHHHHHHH

B1: IL4-P4-1G3VH-cIgGB/IL4-P4-1G3VL-cCL (antibody, V domains shown)
VH: EVQLVESGGDLVKPGGSLRLSCVASGFTFSSYDMDWVRQAPGKGLEWLSEISTNGDRTHYADAVKGRFAISRDNAKNTVYLQMNSLRAEDTAIYYCVRDGYEYLAFDYWGQGTLVTVSS
VL: QSVLNQLPSLSMNMGETATFTCEGDNIGHKYVNWYQQKPGQAPVLTIYEDNKRPSGIPERFSGSNSGNTATLTISGARAEDEADYYCESEVSTGIVFGGGTHLTVLG
notes: Full-length canine IgG-B
B2: IL4-P3-1D7VH-cIgGB/IL4-P3-1D7VL-cCL (antibody, V domains shown)
VH: EVQLVQSGGDLVKPGGSLRLSCVASGFAFNGYDMDWVRLAPGKGLQWLSEISSSGSPTYYADAVEGRFTISRDNAKNTLYLQMDSLRAEDTAVYYCARAGEYTYGYEGYYFDYWGQGTLVTVSS
VL: QSMLTQPASVSGSLGQRVAISCSGSTNNIGIFGATWYQHLPGKAPKFLLYSDGNRPSGVPDRFSGSDSGNSVTLMITALQAEDEADYYCQSFDTTLGAYVFGSGTQLTILG
notes: Full-length canine IgG-B; also called IL4-P3-1D7VH-cIgGB/IL4-P3-D7VL-cCL
B3: IL4-P4A-1A4VH-cIgGB/IL4-P4A-1A4VL-cCL (antibody, V domains shown)
VH: EVQLVESGGDLVKPGGSLRLSCVASGFNFSRYSMSWVRQAPEKGLQLVAAVNSGGSRTWYADAVQGRFTVSRDNAKNTLFLEMSSLKLEDTAMYYCAKDLWSTTIAEYDYWGQGTLVTVSS
VL: SYVLSQPPSVSVTPSETAHITCGGNNIGSKYVQWIRQSAGQAPVTIIYGNTNRPTGIPERFSGANSGNTATLTISGVLAEDEADYYCQVGDTDTTVFGGGTHLTVL
B4: IL4-P3-1C4VH-cIgGB/IL4-P3-1C4VL-cCL (antibody, V domains shown)
VH: EVPLVESGGDLVKPGGSLRISCVASGITFNNDDMGWVRQAPGKGLQWLAEISSSGTSTYYADAVKGRFTISRDNAKNTVYLQMNSLKAEDTGVYYCVGEDGYMALGFWGQGTLVTVSS
VL: QAVLNQPASVSGSLGQRVTISCSGSTNNIGVVGASWYQQFPGKAPKLLVYSDGDRPSGVPDRFSGSNSGYSDTLTITGLQAEDEADYYCQSFDTTLNAYVFGSGTQLTVLG
notes: Full-length canine IgG-B; also called IL4 P3-1 C4 5LC
B5: IL 13 P3-1C6 scFv (scFv)
scFv: QSVLTQPASVSGSLGQRVTISCSGRTNNIGYFGANWYQQVPGKAPKLLVSSYGNRPSGVPDRFSASNSANSATLTITGLQAEDEADYYCQSFDTTLGAVVFGGGTQLTVLGGGSSRSSSSGGGGSGGGGELTLQESGPGLVKPSQTLSLTCVVSGGSVTNTYEWDWIRQRPGRGLEWMGSWTDNTWYNPAFQGRISITADTAKNQLSLQLSSVTTGDTAVYFCARWTKRWGYDYWGQGTLVTVSSASTTAPSVTSGQAGQ
notes: scFv purified from E. coli periplasm on Ni-NTA; also called IL13 1C6
B6: IL13 P3-1 G5 scFv (scFv)
scFv: SYELTQPPSVSVSLGQTATISCSGESLSKYYAQWFQQKAGQAPVLVIYQDTERPSGIPDRFSGSSSGNTHTLTISGARAEDEADYYCESAISPDTYVFGSGTQLTILGGGSSRSSSSGGGGSGGGGEVQLVQSGGDLVKPGGTLRLSCVASGFTFSSYDMSWVRQSPGKGLQWVAAIWNDGSNTEYADAVKGRFTVSRDNAKNTVYLEMNSLRAEDTAMYYCVKEGPSYGYFDYWGQGTLVTVSSASTTAPSVTSGQAGQ
notes: scFv purified from E. coli periplasm on Ni-NTA
B7: IL4-P3-1B10VH-cIgGB/IL4-P3-1B10VL-cCL (antibody, V domains shown)
VH: EVQLVESGGDLVKPGGSLRLSCVASGFTFSNYDMSWVRQAPGKGLQWVSTISYDGNNTYYSDAVKGRFTISRDNARNTLYLQMNSLRAEDTAVYYCAKEFDIPWDNFDYWGQGTLVTVSS
VL: QSVLTQPTSVSAALGQRVTISCTGSNANIGSVYDVQWYQQLPGKSPKTIIYGNTHRPSGVPVRFSGSKSGSTATLTITGIQAEDEADYYCQSYDATLHYVFGSGTQLTVLG
B8: IL4-P3-1B10VHm-cIgGB/IL4-P3-1B10VL-cCL (antibody, V domains shown)
VH: B7 VH with N56Q
VL: B7 VL
notes: Full-length canine IgG-B; also called IL4 P3-1 B10m
B9: IL4-P4A-1F10VH-cIgGB/IL4-P4A-1F10VL-cCL (antibody, V domains shown)
VH: EVQLVQSGGDLVKPAGSLRLSCVASGFTFNSYAMSWVRQAPGKGLQWVAGINSGGSTTTYADAVKGRFTISRDNAKNTLYLQMNSLRAEDTAVYYCAKDQNSYYPSDTFEYWGQGTLVTVSS
VL: QTVVTQEPSLSVSPGGTVTLTCGLSSGSVSTGNYPGWYQQTQGRAPRSIIYDTNSRPSGVPDRFSGSISGNKAVLTITGAQPEDEADYYCSLYTGIAYTDVVFGGGTHLTVLG
notes: Full-length canine IgG-B; also called IL4-1F10; IL4 1F10
B10: IL4-P3-1A6VH-cIgGB/IL4-P3-1A6VL-cCL (antibody, V domains shown)
VH: EVPLVESGGDLVKPGGSLRLSCVASGFTFHNYDLSWIRQLPGGGLQWVADIDKSGLTFYADAVKGRFTISRDNAKNTLYLQMNSLRAEDTAVYYCATWPLGSWYTETFEYWGQGTLVTVSS
VL: QPVLTQPPSVSAALGQRVTISCNTNIGSPYDVQWYQQLPGKSPKTIIYGNSNRPSGVPVRFSGSKSGSTATLTIAGIQAEDEADYYCQSYDDNVDGYVFGSGTQLTVLG
B11: IL13 P3-1 C2 scFv (scFv)
scFv: QAVLNQPASVSGSLGQRVTISCSGSSSNIGRGFVGWYQQLPGTRPKTLIYGDTFRPSGVPDRFFGSRSGSTATLTISGLQAEDEADYYCSTWDDSLAALLFGGGTHLTVLGGGSSRSSFSGGGGSGGGGEVQLVESGGDLVKPGGSLRLSCAASGFTFTDYDMSWVRQAPGKGLQWVATTSNGGSGTYYSDAVKGRFTISRDNAKNTLYLEMNRLRAEDTAVYYCVKEIYPASIDFWGLGTLVTVSSASTTAPSVTSGQAGQ
notes: as for B6
B12: IL13 P3-1 B4 scFv (scFv)
scFv: SYVLTQSPSVSGSLGQTVTISCSGTTIGVVGANWYQQLPGKAPKLLVHSDGGRLSGVPDRFSGSESGNSAALTITGLQAEDEADYYCQSFDTTLGYVFGSGTQLTILGGGSSRSSSSGGGGSGGGGELTLQESGPGLVKPSQTLSLTCVVSGGSVTSNYYWNWIRQRPGRGLEWMGYWTGSTNYNPAFQGRISITADTAKNHFSLQLTSMTTEDTAVYYCARASTWLHGMDFWGHGTSLFVSSESPSPPNLTSGQAGQ
notes: as for B6
B13: IL4-P3-1B9VH-cIgGB/IL4-P3-1B9VL-cCL (antibody, V domains shown)
VH: ELQLVELGGDLVKPGGSLRLSCVASGFTFSSYGMSWVRQSPGKGLQWVADISSSGSTYYADAVKGRFTISRDNAKSTLYLQMNSLRAEDTAVYYCAKAGYGSYYDFGMDYWGHGTSVFVSS
VL: QAVLTQPASVSAALGQRVTISCTGTATNVGGGYDVQWYQQFPGRPPKTIIYGNYNRPSGVPDRFSASTSGTTATLTITGIQVADEADYYCQSFDTTFNGHVFGAGTQLTILG
notes: Full-length canine IgG-B

What was measured:
[1] = target: T1, Recombinant canine IL-4 (R&D Systems, …); assay: cell-based or functional assay
[2] = target: T2, Canine IL-4 with C-terminal Avi-HIS tag; assay: BLI (OCTET HTX); biotin-mAb on SA biosensors, cIL-4 in solution; 1:1 model
Experimental: Selected scFv specific to cIL-4 or cIL-13 were converted into full length canine IgG mAbs and tested for binding by OCTET. All kinetics measurements were performed by OCTET HTX using SA biosensors and Data Acquisition 12.0 software. First, each biotin-labeled full-length anti-canine IL-4 or anti-canine IL-13 mAb, at a concentration of 5 μg/mL, were loaded onto the pre-rehydrated SA biosensors until binding signal change ascended to a […] threshold for all channels from the step start or for a maximum of 1200s to insure equal loading density. Second, the biosensors were placed into OCTET Kinetics Buffer (PBS+0.02% Tween20, 0.1% BSA) for the blocking phase for 60s. Third, for the association phase, full-length anti-canine IL-4 mAb or anti-canine IL-13 mAb loaded biosensors were placed into 2-fold serial dilutions from 1000 nM down to 15.6 nM of cIL-4 or cIL-13, respectively, in OCTET Kinetics Buffer for 60s. The last well was buffer alone and that sensor was used for reference sensor subtraction. Finally, the biosensors were placed into OCTET Kinetics Buffer for the dissociation phase for 180s. Analysis was performed using Data Analysis 12.0 software and curves were fitted using a 1:1 binding model.

[3] = target: T3, Canine IL-13 with C-terminal Avi-HIS tag; assay: BLI (OCTET HTX); biotin-cIL-13 on SA biosensors, scFv in solution; 1:1 model
Experimental: The in vitro binding of anti-canine IL-4 scFv and IL-13 scFv to canine IL-4 and canine IL-13, respectively, was determined by OCTET HTX using SA biosensors and Data Acquisition 12.0 software. First, biotin-labeled antigen (cIL-4 or cIL-13) was loaded onto the pre-rehydrated SA biosensors for 60 seconds (60s) at a concentration of 5 μg/mL. Second, the biosensors were placed into the OCTET Kinetics Buffer (PBS+0.02% Tween20, 0.1% BSA) for the blocking phase for 120s. Third, for the association phase, cIL-4 or cIL-13 antigen loaded biosensors were placed into 2-fold serial dilutions from 500 nM down to 7.8 nM of anti-cIL-4 or anti-cIL-13 scFvs, respectively, in OCTET Kinetics Buffer for 60s. The last well was buffer alone and that sensor was used for reference sensor subtraction. Finally, the biosensors were placed into OCTET Kinetics Buffer for the dissociation phase for 300s. The analysis was performed using Data Analysis 12.0 software and curves were fitted using a 1:1 binding model.

Binder | IL-4 IC50 (nM); inhibition of canine IL-4 mediated STAT6 phosphorylation in DH82 cells [1] | Kd [2] | koff [2] | kon [2] | Kd [3] | koff [3] | kon [3]
B1 | 8.31 nM | 1.51 nM | 0.00243 s⁻¹ | 1.61e+06 M⁻¹ s⁻¹ |  |  | 
B2 | 37.6 nM | 2.01 nM | 0.00226 s⁻¹ | 1.12e+06 M⁻¹ s⁻¹ |  |  | 
B3 | 4.24 nM |  |  |  |  |  | 
B4 | 5.41 nM | 10.5 nM | 0.0189 s⁻¹ | 1.8e+06 M⁻¹ s⁻¹ |  |  | 
B5 |  |  |  |  | 45.2 nM | 0.0107 s⁻¹ | 304000 M⁻¹ s⁻¹
B6 |  |  |  |  | 158 nM | 0.0158 s⁻¹ | 104000 M⁻¹ s⁻¹
B7 | 87.8 nM |  |  |  |  |  | 
B8 | 30 nM | 0.622 nM | 0.000809 s⁻¹ | 1.3e+06 M⁻¹ s⁻¹ |  |  | 
B9 | 0.58 nM | 0.305 nM | 0.000114 s⁻¹ | 374000 M⁻¹ s⁻¹ |  |  | 
B10 | 0.56 nM |  |  |  |  |  | 
B11 |  |  |  |  | 77.4 nM | 0.00192 s⁻¹ | 29600 M⁻¹ s⁻¹
B12 |  |  |  |  | 13.1 nM | 0.00224 s⁻¹ | 320000 M⁻¹ s⁻¹
B13 | 3.77 nM | 0.0635 nM | 2.11e-05 s⁻¹ | 212000 M⁻¹ s⁻¹ |  |  | 
